Test results taken from patent US20230183353A1.

Legend:
[1] = molecular target: recombinant human FcγRIIIa (Phe) (human) (UniProt P08637); test: SPR (ProteOn), receptor immobilised on GLC chip by amine coupling, pH 7.4, 25 C
[2] = molecular target: recombinant human FcγRIIIa (Val) (human) (UniProt P08637); test: as above
Sequence of recombinant human FcγRIIIa (Val) (human) (P08637 17-208 F176V limits assumed): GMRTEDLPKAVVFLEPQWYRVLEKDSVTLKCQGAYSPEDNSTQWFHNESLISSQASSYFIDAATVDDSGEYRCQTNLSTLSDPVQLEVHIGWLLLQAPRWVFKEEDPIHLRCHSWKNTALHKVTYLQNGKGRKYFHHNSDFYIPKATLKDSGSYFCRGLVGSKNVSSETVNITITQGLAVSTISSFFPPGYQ

Sequence of recombinant human FcγRIIIa (Phe) (human) (P08637 17-208 limits assumed): as the sequence (P08637 17-208 F176V limits assumed) above, with V160F counted along it

- Kd [1]: 2200 nM
- Kd [2]: 1280 nM
Substance: Control molecule representing human IgG1 control (lacking substitutions of the present invention)
